This note sets out measurements from US12458630 (University of California, dated 2025).

Numbering of substitutions follows the chain as printed. Numbers in names are those of the source.

The labels stand for the following.
B1: endogenous VAMP8 of MIA PaCa-2 cells (other, human, UniProt Q9BV40 1-100, looked up)
chain: MEEASEGGGNDRVRNLQSEVEGVKNIMTQNVERILARGENLEHLRNKTEDLEATSEHFKTTSQKVARKFWWKNVKMIVLICVIVFIIILFIVLFATGAFS
B2: IKKα W651A-Flag (LIR-mutated IKKα) (enzyme)
chain: MERPPGLRPGAGGPWEMRERLGTGGFGNVCLYQHRELDLKIAIKSCRLELSTKNRERWCHEIQIMKKLNHANVVKACDVPEELNILIHDVPLLAMEYCSGGDLRKLLNKPENCCGLKESQILSLLSDIGSGIRYLHENKIIHRDLKPENIVLQDVGGKIIHKIIDLGYAKDVDQGSLCTSFVGTLQYLAPELFENKPYTATVDYWSFGTMVFECIAGYRPFLHHLQPFTWHEKIKKKDPKCIFACEEMSGEVRFSSHLPQPNSLCSLVVEPMENWLQLMLNWDPQQRGGPVDLTLKQPRCFVLMDHILNLKIVHILNMTSAKIISFLLPPDESLHSLQSRIERETGINTGSQELLSETGISLDPRKPASQCVLDGVRGCDSYMVYLFDKSKTVYEGPFASRSLSDCVNYIVQDSKIQLPIIQLRKVWAEAVHYVSGLKEDYSRLFQGQRAAMLSLLRYNANLTKMKNTLISASQQLKAKLEFFHKSIQLDLERYSEQMTYGISSEKMLKAWKEMEEKAIHYAEVGVIGYLEDQIMSLHAEIMELQKSPYGRRQGDLMESLEQRAIDLYKQLKHRPSDHSYSDSTEMVKIIVHTVQSQDRVLKELFGHLSKLLGCKQKIIDLLPKVEVALSNIKEADNTVMFMQGKRQKEIAHLLKIACTQSSARSLVGSSLEGAVTPQTSAWLPPTSAEHDHSLSCVVTPQDGETSAQMIEENLNCLGHLSTIIHEANEEQGNSMMNLDWSWLTE
notes: also called LIR-mutated IKKα variant; pCDH-CMV-MCS-EF1-Puro-IKKα W651A-Flag; not shown: Flag tag
B3: endogenous syntaxin 17 (STX17) of MIA PaCa-2 cells (other, human, UniProt P56962 2-302, looked up)
chain: SEDEEKVKLRRLEPAIQKFIKIVIPTDLERLRKHQINIEKYQRCRIWDKLHEEHINAGRTVQQLRSNIREIEKLCLKVRKDDLVLLKRMIDPVKEEASAATAEFLQLHLESVEELKKQFNDEETLLQPPLTRSMTVGGAFHTTEAEASSQSLTQIYALPEIPQDQNAAESWETLEADLIELSQLVTDFSLLVNSQQEKIDSIADHVNSAAVNVEEGTKNLGKAAKYKLAALPVAGALIGGMVGGPIGLLAGFKVAGIAAALGGGVLGFTGGKLIQRKKQKMMEKLTSSCPDLPSQTDKKCS
notes: also called endogenous STX17
B4: IKKα Y568A-Flag (LIR-mutated IKKα) (enzyme)
chain: B2 chain with Y568A, A651W
notes: also called LIR-mutated IKKα variant; pCDH-CMV-MCS-EF1-Puro-IKKα Y568A-Flag; not shown: Flag tag

The target of experiment [1] is B3. Put plainly: co-IP with STX17, IKKα-ablated MIA PaCa-2 cells re-expressing wt IKKα (FIG. 14D).
Experiment [2] concerns the target endogenous LC3 (microtubule-associated protein light chain 3) of MIA PaCa-2 cells (human, UniProt Q9GZQ8 1-120). Put plainly: co-IP in starved IKKα-ablated MIA PaCa-2 cells (FIG. 14C).
Experiment [3] addresses B2. The experiment is described as above.
Experiment [4] deals with B4. The description is as above.

In the case of B1, the binding result in experiment [1] is given as “binds”. Take B2: the binding result in experiment [2] is “no binding”. For the molecule B3, the binding result in experiment [3] and in experiment [4] was “no binding” in each case. For the molecule B4, the binding result in experiment [2] was “no binding”.
